In series [1] the target is statine-Val (a peptide BACE-1 inhibitor).
Series [2] addresses T1, coumarin-labeled 10-mer peptide substrate REVNFEVEFR
T1 chain: REVNFEVEFR

One protein from patent US20070292895 can be followed below.

B1: mouse brain BACE-1 (MES membrane preparation from wild-type mice) (protein)
chain: ETDEESEEPGRRGSFVEMVDNLRGKSGQGYYVEMTVGSPPQTLNILVDTGSSNFAVGAAPHPFLHRYYQRQLSSTYRDLRKGVYVPYTQGKWEGELGTDLVSIPHGPNVTVRANIAAITESDKFFINGSNWEGILGLAYAEIARPDDSLEPFFDSLVKQTHIPNIFSLQLCGAGFPLNQTEALASVGGSMIIGGIDHSLYTGSLWYTPIRREWYYEVIIVRVEINGQDLKMDCKEYNYDKSIVDSGTTNLRLPKKVFEAAVKSIKAASSTEKFPDGFWLGEQLVCWQAGTTPWNIFPVISLYLMGEVTNQSFRITILPQQYLRPVEDVATSQDDCYKFAVSQSSTGTVMGAVIMEGFYVVFDRARKRIGFAVSACHVHDEFRTAAVEGPFVTADMEDCGYNIPQTDESTLMTIAYVMAAICALFMLPLCLMVCQWRCLRCLRHQHDDFADDISLLK
For B1, the “substrate cleavage (HPLC product peak), brain extract” value in series [1] was “BACE-1 inhibitor's Stat(V) and Merck-3 led to complete abolition of substrate cleavage”. In series [2], the “hydrolysis of substrate (HPLC)” value is listed as “hydrolysis was observed to be about 15% of total substrate that had been added in the reaction”.
